# Experimental data taken from patent publication US9365620B2, “Methods for treating pain” (NoNO NC., priority 2008, dated 2016).
# Molecular target: N-type calcium channels (Mus musculus, UniProt O55017)
# Format: cell-based, Swiss mice
# Settings: Tat-NR2B9c 100 μM, conotoxin 1 μM, FIG. 5A
sequence,measurement,value
YGRKKRRQRRRKLSSIESDV [Tat-NR2B9c] (Synthetic peptide Tat-NR2B9c) [chimeric peptide of a standard tat peptide and …],additional inhibition of Ca^2+ current once N-channels are blocked by Omega conotoxin,no additional inhibition
